From US5908761, “Galectin-8 and galectin-8-like proteins and DNA molecules coding therefor” (Yeda Research and Development Co. Ltd., dated 1999)

Target: the molecule itself
Assay: gel filtration over Superdex-200 HR FPLC column (self-association)
Protocol: Approximately 100 μg protein was loaded onto Superdex-200 HR (Pharmacia) FPLC column equilibrated with buffer A (PBS, 4 mM β-mercaptoethanol, 2 mM EDTA), and run for 60 min at 0.5 ml/min. O.D. was measured at 215 nm, and the column profile was obtained by running separately standard marks.
The primary structure of galectin-8 resembles that of galectin-4, namely, two homologous (38% identity) carbohydrate-binding regions (CRDs) linked by a short ≈30-amino acids linking peptide. This unique architecture is shared so far only by two galectins: rat galectin-4 (12) and its *C. elegans* homologue (13). Other galectin types, that contain a single CRD, exist and function as non-covalent dimers, which provides them with the potential to aggregate or agglutinate glycoconjugates. Since galectin-4 exists as a monomer, experiments were carried out to determine whether galectin-8 exists as a monomer or a dimer. […] Hepatic galectin-8 (FIG. 6) has a similar mobility on SDS-PAGE as its recombinant counterpart (FIG. 5).

B1: tag-free recombinant galectin-8 (other)
chain: MLSLSNLQNIIYNPTIPYVSTITEQLKPGSLIVIRGHVPKDSERFQVDFQHGNSLKPRADVAFHFNPRFKRSNCIVCNTLTNEKWGWEEITHDMPFRKEKSFEIVIMVLKNKFHVAVNGKHILLYAHRINPEKIDTLGIFGKVNIHSIGFRFSSDLQSMETSTLGLTQISKENIQKSGKLHLSLPFEARLNASMGPGRTVVVKGEVNTNATSFNVDLVAGRSRDIALHLNPRLNVKAFVRNSFLQDAWGEEERNITCFPFSSGMYFEMIIYCDVREFKVAVNGVHSLEYKHRFKDLSSIDTLAVDGDIRLLDVRSW
B1: no binding.
